Laboratory results: the supplement of paper PMC9876800

Test system: peptide library, one residue held at a place counted from the S/T acceptor
Assay: relative phosphorylation of the sub-library (ratio to the mean residue at this position); higher = residue favoured
Settings: human
In short: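 Relative sub-library phosphorylation is the ratio of each sub-library's signal to the mean residue at that position. The signal came from phosphorimaging of spots on streptavidin membranes, quantified by densitometry, after purified recombinant kinases reacted with biotinylated degenerate peptide sub-libraries in 384-well plates. Reactions held 50 μM peptide and 50 μM ATP spiked with γ-32P-ATP for 90 min under kinase-specific conditions.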

PNCK, construct: Full length, sequence (Q6P2M8 whole entry, looked up): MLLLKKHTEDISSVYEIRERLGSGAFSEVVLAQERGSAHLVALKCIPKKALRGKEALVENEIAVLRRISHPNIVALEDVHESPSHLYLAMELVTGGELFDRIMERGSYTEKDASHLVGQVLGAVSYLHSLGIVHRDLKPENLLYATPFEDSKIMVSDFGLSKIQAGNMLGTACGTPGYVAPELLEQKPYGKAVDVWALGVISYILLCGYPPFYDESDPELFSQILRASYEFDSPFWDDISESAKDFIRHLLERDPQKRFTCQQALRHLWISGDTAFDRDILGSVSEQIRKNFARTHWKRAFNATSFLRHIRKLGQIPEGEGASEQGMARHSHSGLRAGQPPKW
NEK7, construct: Full length, sequence (Q8TDX7 whole entry, looked up): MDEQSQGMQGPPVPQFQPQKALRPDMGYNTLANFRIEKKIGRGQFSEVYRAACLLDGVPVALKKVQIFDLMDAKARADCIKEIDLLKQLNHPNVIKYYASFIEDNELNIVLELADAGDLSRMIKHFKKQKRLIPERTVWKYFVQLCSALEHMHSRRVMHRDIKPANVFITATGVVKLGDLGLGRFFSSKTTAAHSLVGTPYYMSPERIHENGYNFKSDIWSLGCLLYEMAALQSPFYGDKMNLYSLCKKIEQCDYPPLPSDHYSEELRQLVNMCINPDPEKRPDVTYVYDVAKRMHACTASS

PNCK, construct: Full length (from UniProt Q6P2M8)
relative phosphorylation
Settings | at +1 | at +2 | at +3 | at +4 | at -1 | at -2 | at -3 | at -4 | at -5
A fixed | 0.986 | 1.09 | 1 | 0.953 | 0.983 | 1.03 | 0.881 | 0.95 | 0.856
D fixed | 0.844 | 1.03 | 1.2 | 1.01 | 1.07 | 0.666 | 0.626 | 0.713 | 0.718
E fixed | 0.919 | 1.03 | 1.07 | 0.985 | 0.92 | 0.678 | 0.644 | 0.803 | 0.726
F fixed | 1.37 | 0.986 | 1 | 1.07 | 0.904 | 0.687 | 0.659 | 0.921 | 1.12
G fixed | 0.879 | 0.871 | 1.01 | 1.01 | 1.01 | 0.814 | 0.678 | 0.863 | 0.833
H fixed | 0.96 | 1.28 | 1.02 | 0.93 | 1.06 | 0.826 | 0.799 | 0.921 | 0.839
I fixed | 0.869 | 1.01 | 0.851 | 1.13 | 0.785 | 0.795 | 0.741 | 1.06 | 1.12
K fixed | 1.13 | 0.889 | 0.962 | 0.927 | 1.32 | 1.88 | 1.84 | 1.7 | 1.13
L fixed | 0.866 | 0.98 | 0.913 | 1.2 | 0.826 | 0.764 | 0.694 | 1.1 | 1.56
M fixed | 0.938 | 0.893 | 0.876 | 0.982 | 0.869 | 0.855 | 0.668 | 0.986 | 1.07
N fixed | 1.06 | 0.966 | 1.26 | 0.96 | 1.41 | 0.934 | 0.732 | 0.892 | 0.822
P fixed | 0.777 | 0.914 | 0.92 | 1.07 | 1.07 | 0.641 | 0.649 | 0.787 | 0.994
Q fixed | 1.19 | 0.947 | 0.976 | 1 | 0.983 | 1.46 | 0.826 | 1.01 | 0.958
R fixed | 1.39 | 1.02 | 0.958 | 0.875 | 1.32 | 2.64 | 4.54 | 1.49 | 1.44
V fixed | 0.873 | 1.02 | 0.885 | 0.991 | 0.795 | 0.8 | 0.679 | 1.05 | 0.956
W fixed | 0.909 | 0.916 | 1.02 | 0.989 | 0.81 | 0.829 | 0.7 | 0.835 | 0.873
Y fixed | 1.02 | 1.14 | 1.08 | 0.91 | 0.86 | 0.706 | 0.644 | 0.91 | 0.973
pThr fixed | 1.16 | 1.29 | 1.1 | 1.13 | 0.832 | 0.701 | 0.723 | 0.902 | 0.774
pTyr fixed | 1.12 | 2.97 | 1.42 | 1.04 | 1.02 | 0.701 | 0.684 | 0.799 | 0.897

NEK7, construct: Full length (from UniProt Q8TDX7)
relative phosphorylation
Settings | at +1 | at +2 | at +3 | at +4 | at -1 | at -2 | at -3 | at -4 | at -5
A fixed | 0.653 | 1.05 | 0.923 | 0.86 | 1.05 | 1.12 | 0.975 | 1.02 | 1.07
D fixed | 0.327 | 0.61 | 0.66 | 0.722 | 1.29 | 2.31 | 0.65 | 1.91 | 1.83
E fixed | 0.267 | 0.376 | 0.597 | 0.747 | 1.42 | 1.8 | 0.583 | 1.28 | 1.43
F fixed | 1.54 | 0.717 | 1.21 | 0.846 | 0.646 | 0.87 | 1.94 | 0.839 | 0.989
G fixed | 0.827 | 1.12 | 1.28 | 1.18 | 0.713 | 1.4 | 0.853 | 1.05 | 0.972
H fixed | 1.16 | 1.38 | 1.21 | 1.11 | 1.12 | 1.3 | 0.755 | 1.03 | 1.06
I fixed | 1.28 | 0.812 | 0.957 | 0.919 | 0.569 | 0.433 | 0.494 | 0.647 | 0.831
K fixed | 0.588 | 1.47 | 1.24 | 1.3 | 1.34 | 0.625 | 0.446 | 0.82 | 0.842
L fixed | 1.18 | 0.549 | 1.1 | 0.895 | 1.02 | 0.718 | 2.39 | 0.832 | 0.771
M fixed | 1.78 | 0.693 | 0.899 | 0.948 | 1.03 | 0.973 | 1.46 | 0.823 | 0.703
N fixed | 1 | 1.63 | 0.833 | 0.907 | 1.22 | 1.47 | 0.705 | 1.35 | 1.15
P fixed | 0.242 | 0.691 | 0.703 | 1.09 | 0.234 | 0.356 | 1.3 | 0.918 | 0.886
Q fixed | 1.33 | 0.933 | 0.813 | 0.986 | 1.52 | 0.951 | 0.628 | 0.889 | 0.938
R fixed | 0.865 | 2.1 | 1.08 | 1.16 | 1.21 | 0.626 | 0.652 | 0.959 | 0.878
V fixed | 1.05 | 0.905 | 0.889 | 0.846 | 0.901 | 0.372 | 0.538 | 0.613 | 0.8
W fixed | 1.47 | 0.94 | 1.58 | 1.46 | 0.908 | 0.859 | 1.4 | 1.23 | 1.1
Y fixed | 1.44 | 1.02 | 1.02 | 1.02 | 0.796 | 0.822 | 1.23 | 0.78 | 0.754
pThr fixed | 0.701 | 0.607 | 0.62 | 0.842 | 0.624 | 1 | 0.973 | 1.15 | 0.979
pTyr fixed | 0.816 | 0.62 | 0.836 | 0.681 | 1.68 | 1.6 | 1.12 | 0.861 | 1.12
